Like-named read-outs stand apart in the source and are kept apart here.
B1: Bacillus subtilis Esterase (EstB without signal sequence) (protein, listed as Bacillus subtilis)
chain: ESVHNPVVLVHGISGASYNFFAIKNYLISQGWQSNKLYAIDFYDKTGNNLNNGPQLASYVDRVLKETGAKKVDIVAHSMGGANTLYYIKYLGGGNKIQNVVTLGGANGLVSSTALPGTDPNQKILYTSIYSLNDQIVINSLSRLQGARNIQLYGIGHIGLLSNSQVNGYIKEGLNGGGLNTN
modifications: Esterase (EstB H191 without signal sequence)
B2: Streptomyces coelicolor Chitinase F (Chi19F) (protein)
chain: ASCSSYHAWSADANYNTGDIVRYTDGKAYIAEHANPGYDPLISTWYWDPYACDGGSQTPVGNFVVSEAQFNQMFPGRNSFYTYSGLTAALSAYPGFANTGSDTTKKQEAAAFLANVSHETGGLVYIVEQNTANYPHYCDWNQPYGCPAGQAAYYGRGPIQLSWNFNYKAAGDALGIDLLGNPWLVQNDAAVAWKTGLWYWNTQSGPGTMTPHNAMVNGAGFGQTIRSINGSLECDGKNPAQVQSRVTKYQQFAQILGVSPGGNLYC
modifications: Chitinase F (Chi19F); Streptomyces coelicolor

What was measured:
[1] = system: SCN juveniles (SCN HG type 1.2.5.7, race 2); assay type: in vivo; conditions: for Difference in Percent Death of Nematodes for 0 to 24 Hours: 40 μL of each treatment per well
Description: To identify an additional esterase enzyme with efficacy in reducing SCN viability, we performed an in-vitro plate assay with a Pseudomonas sp. esterase (SEQ ID NO: 248) free enzyme direct treatment. The Pseudomonas sp. esterase (SEQ ID NO: 248) was produced by fermentation in Bacillus subtilis. The enzyme was cloned into a Bacillus expression plasmid p1797 with isopropyl β-d-1-thiogalactopyranoside (IPTG) inducible expression. The plasmid was transformed into B. subtilis, and the gene sequence was confirmed. The strain was grown in rich media until an optical density (OD) 0.2-0.5 was reached. Enzyme expression was then induced by addition of […] IPTG. Following the culture harvest, cells were removed by filtration through a […] filter. The culture filtrate containing the secreted enzyme was then collected and used for further applications.
(§1) SCN eggs were obtained from SCN HG type 1.2.5.7, race 2. Eggs were rinsed 4 times with sterile water. Eggs were transferred to a 6-well plate and resuspended in 5 mL of 3 mM ZnSO4. The plate was sealed with parafilm, covered with aluminum foil to prevent light from entering the plate, and placed in a plate growth chamber at 25° C. and 80% relative humidity. After 6-7 days of incubation, an estimate of hatched SCN juveniles was obtained from the well to determine the overall number of juveniles per 10 μL. The concentration of the hatchery solution was adjusted until it consisted of 20-30 juveniles per 10 μL.
Potato dextrose agar media containing chloramphenicol and chlortetracycline was prepared and added to sterile twenty-four-well cell culture plates (1 mL per well). The plates were divided according to the pre-determined N-value for each treatment (N=12-24). Each treatment being tested was added to the agar surface within each well at a rate of 40 μL per well. Without allowing the treatments to dry, 10 μL of the prepared nematode mixture was added to the agar surface within each well.
To quantify the treatments' effects on nematode viability, the nematodes were examined under a dissecting microscope at 20× magnification. Initial (T0) values for the number of live juveniles, number of dead juveniles and total number of juveniles were recorded immediately after preparation of each well. The plates were then wrapped in parafilm around the open edge, encased in aluminum foil, and placed in secondary containment. The secondary containment was placed in a plant growth chamber at 25° C. and 80% relative humidity. At approximately 24 hours post addition of juveniles, the plates were evaluated, and the number of live juveniles, dead juveniles and total number of juveniles were recorded (T24).
The difference in percent death at T0 vs T24 was calculated by subtracting the percent dead at TO [(#dead juveniles/total #juveniles)×100] from the percent dead at T24 [(#dead juveniles/#total juveniles originally present)×100]. […] If the ANOVA indicated a significant difference existed among treatments, Tukey's HSD post hoc test was used to perform a pairwise contrast between each set of treatments. Different letters denote statistically significant results at P<0.05.
as §1, with “from” for “from SCN”, “rinsed four” for “rinsed 4”, “and 80-90%” for “and 80%”, “from each” for “from the”
Potato dextrose agar media containing chloramphenicol and chlortetracycline was prepared and added to sterile twenty-four-well cell culture plates (1 mL per well). […]

[2] = system: soybean cyst nematode (SCN); test: Soil application around soybean plants: SCN cysts per gram of root tissue; assay type: in vivo, Heterodera glycines; conditions: Table 34; for Average cysts per g of root tissue: 0.5 mL/plant to soil, soybean 2830E3, 3 weeks, water control 139.8; for % Comparison to Control: water control = 100%, change in brackets
Description: To determine the efficacy of nematicidal enzymes applied to soil, a controlled environment trial was performed with 7-day old soybean plants (variety 2830E3) grown in pots. Enzymes were produced as described in Example 2. Prior to inoculation, 0.5 mL of neutral protease (SEQ ID NO: 127), esterase B (SEQ ID NO: 89), or chitinase 19F (SEQ ID NO: 182) free enzyme solution was applied to the soil around the base of each plant, or 0.5 mL of water was applied for the control (30 plants per treatment). Then, hatched SCN juveniles were applied to the soil around each plant as described in Example 2, and three weeks later, cysts per gram of root tissue was determined as described in Example 2. The data was analyzed as in Example 2 and appears in Tables 33 and 34.
To determine the efficacy of recombinant strains applied to soil, a controlled environment trial was performed as described in Example 18 above (Reduction of soybean cyst nematode reproduction by enzymes applied to soil), with the exception that a recombinant strain expressing neutral protease (SEQ ID NO: 127) was applied instead of a free enzyme solution. The recombinant strain was produced as in Example 3, and the treatment applied to soil as a whole cell broth.

[3] = system: Fall armyworm (Spodoptera frugiperda); test: Diet-surface overlay (DSO) bioassay; assay type: in vivo; conditions: for Larva Stage I / Larva Stage II / Larva Stage III / Larva Stage IV / Dead Larva: number of individuals
Method in brief: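 Enzyme treatments (0.1 mL) were spread and dried on artificial diet (no antibiotics), then one first-instar larva was placed per cell, 16 or 32 larvae per treatment. Trays were held at 27° C., 16:8 h light-dark, and developmental categories were counted after 7 days. Controls were filtered water and Btk spores at 1000 ppm.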

| Molecule | Difference in Percent Death of Nematodes for 0 to 24 Hours ([1]; Table 28, fertilizer 3% v/v) [%] | difference in percent death over twenty-four hours, single treatment relative to the combination Esterase B + 10-34-0 fertilizer ([1]; text to Table 28) [%] | Average cysts per g of root tissue [2] | % Comparison to Control [2] | Larva Stage I ([3]; Table 50, esterases, n=32) | Larva Stage II ([3]; Table 50, esterases, n=32) | Larva Stage III ([3]; Table 50, esterases, n=32) | Larva Stage IV ([3]; Table 50, esterases, n=32) | Dead Larva ([3]; Table 50, esterases, n=32, dose per treatment in U/mL Diet) | individuals with delayed development ([3]; text to Table 50) [%] | Difference in Percent Death of Nematodes for 0 to 24 Hours ([1]; Table 32, water only 4%) [%] | difference in percent death during 24 hours ([1]; text to Table 32) [%] | Larva Stage I ([3]; Table 48, chitinases, n = 32) | Larva Stage II ([3]; Table 48, chitinases, n = 32) | Larva Stage III ([3]; Table 48, chitinases, n = 32) | Larva Stage IV ([3]; Table 48, chitinases, n = 32) | Dead Larva ([3]; Table 48, chitinases, n = 32, dose per treatment in mU/mL Diet) |
| --- | --- | --- | --- | --- | --- | --- | --- | --- | --- | --- | --- | --- | --- | --- | --- | --- | --- |
| B1 | 3 | −7 | 117.3 cysts per g of root tissue | 84% (−16%) | 3 | 4 | 14 | 10 | 1 | 67 |  |  |  |  |  |  |  |
| B2 |  |  | 95.6 cysts per g of root tissue | 68% (−32%) |  |  |  |  |  |  | 24 | 24 | 4 | 14 | 5 | 6 | 3 |
